The source of these data is paper PMC8100514.

This assay addresses β-tubulin, endogenous in HeLa cells (human (endogenous in HeLa)) (UniProt P07437). Put plainly: native gel or EMSA; soluble native extracts of HeLa cells treated with 5 uM colchicine for 60 min (30 ug) on 6% non-denaturing PAGE, western blot with anti-TBCA; level of the complex relative to control cells (100%).
UniProt P07437, sequence (P07437 whole entry): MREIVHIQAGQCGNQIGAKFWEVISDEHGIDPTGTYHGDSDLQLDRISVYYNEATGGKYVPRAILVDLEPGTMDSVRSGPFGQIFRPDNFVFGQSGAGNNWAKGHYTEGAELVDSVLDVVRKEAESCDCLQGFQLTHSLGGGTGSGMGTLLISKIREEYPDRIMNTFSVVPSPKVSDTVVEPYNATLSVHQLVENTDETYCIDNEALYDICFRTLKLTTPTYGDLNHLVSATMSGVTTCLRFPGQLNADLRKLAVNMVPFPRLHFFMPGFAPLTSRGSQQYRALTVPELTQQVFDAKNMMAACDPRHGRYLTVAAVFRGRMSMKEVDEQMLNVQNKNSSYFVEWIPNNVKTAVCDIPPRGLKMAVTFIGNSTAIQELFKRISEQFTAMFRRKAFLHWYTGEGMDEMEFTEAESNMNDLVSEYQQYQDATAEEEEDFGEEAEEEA

B1: tubulin cofactor A (TBCA), endogenous in HeLa cells (natural protein)
chain: MADPRVRQIKIKTGVVKRLVKEKVMYEKEAKQQEEKIEKMRAEDGENYDIKKQAEILQESRMMIPDCQRRLEAAYLDLQRILENEKDLEEAEEYKEARLVLDSVKLEA
In turn, B1 gave a level of the TBCA/β-tubulin complex, percent of control cells of 18%.
